B1: PDGFBB: growth factor (protein, UniProt P01127 82-190, looked up)
Platelet-derived growth …: SLGSLTIAEPAMIAECKTRTEVFEISRRLIDRTNANFLVWPPCVEVQRCSGCCNNRNVQCRPTQVQLRPVQVRKIEIVRKKPIFKKATVTLEDHLACKCETVAAARPVT
modifications: BB homodimer
notes: growth factor
B2: EGF: growth factor (protein, UniProt P01133 23-1207, looked up)
Pro-epidermal growth factor: PQHWSCPEGTLAGNGNSTCVGPAPFLIFSHGNSIFRIDTEGTNYEQLVVDAGVSVIMDFHYNEKRIYWVDLERQLLQRVFLNGSRQERVCNIEKNVSGMAINWINEEVIWSNQQEGIITVTDMKGNNSHILLSALKYPANVAVDPVERFIFWSSEVAGSLYRADLDGVGVKALLETSEKITAVSLDVLDKRLFWIQYNREGSNSLICSCDYDGGSVHISKHPTQHNLFAMSLFGDRIFYSTWKMKTIWIANKHTGKDMVRINLHSSFVPLGELKVVHPLAQPKAEDDTWEPEQKLCKLRKGNCSSTVCGQDLQSHLCMCAEGYALSRDRKYCEDVNECAFWNHGCTLGCKNTPGSYYCTCPVGFVLLPDGKRCHQLVSCPRNVSECSHDCVLTSEGPLCFCPEGSVLERDGKTCSGCSSPDNGGCSQLCVPLSPVSWECDCFPGYDLQLDEKSCAASGPQPFLLFANSQDIRHMHFDGTDYGTLLSQQMGMVYALDHDPVENKIYFAHTALKWIERANMDGSQRERLIEEGVDVPEGLAVDWIGRRFYWTDRGKSLIGRSDLNGKRSKIITKENISQPRGIAVHPMAKRLFWTDTGINPRIESSSLQGLGRLVIASSDLIWPSGITIDFLTDKLYWCDAKQSVIEMANLDGSKRRRLTQNDVGHPFAVAVFEDYVWFSDWAMPSVMRVNKRTGKDRVRLQGSMLKPSSLVVVHPLAKPGADPCLYQNGGCEHICKKRLGTAWCSCREGFMKASDGKTCLALDGHQLLAGGEVDLKNQVTPLDILSKTRVSEDNITESQHMLVAEIMVSDQDDCAPVGCSMYARCISEGEDATCQCLKGFAGDGKLCSDIDECEMGVPVCPPASSKCINTEGGYVCRCSEGYQGDGIHCLDIDECQLGEHSCGENASCTNTEGGYTCMCAGRLSEPGLICPDSTPPPHLREDDHHYSVRNSDSECPLSHDGYCLHDGVCMYIEALDKYACNCVVGYIGERCQYRDLKWWELRHAGHGQQQKVIVVAVCVVVLVMLLLLSLWGAHYYRTQKLLSKNPKNPYEESSRDVRSRRPADTEDGMSSCPQPWFVVIKEHQDLKNGGQPVAGEDGQAADGSMQPTSWRQEPQLCGMGTEQGCWIPVSSDKGSCPQVMERSFHMPSYGTQTLEGGVEKPHSLLSANPLWQQRALDPPHQMELTQ
modifications: Pro-epidermal growth factor

Test system: MSCs
Experiment: Protocol 3 differentiation of MSCs to hybrid cells with growth factors
Format: cell-based
Settings: individually and in combination, as replacements or in combination with HGF and PDGF
Description: A shortened third protocol (Protocol 3) was examined and was also found to produce MSC-muscle cell hybrid cells. The MSCs were cultured in normal MSC culturing conditions followed by supplementation of the media for 24 hours with 5-AZA. The cells were than grown in media supplemented with 2% horse serum and HGF and PDGF for 2 weeks. […] The following growth factors were tested both individually and in combination as replacements or in combination with HGF and PDGF: EGF, IGF1, PDGFAA, PDGFBB, and VEGF. […] Additionally, the protocol could be halted by moving the treated MSCs to non-supplemented MSC media. Hybrid cells that were produced could thus be halted from further differentiation.
All three protocols were also performed with MSCs that had first undergone myogenic priming as described above.

Molecule | production of hybrid cells from MSCs
B1 | found to produce hybrid cells
B2 | found to produce hybrid cells

From patent publication US10973857B2, “Mesenchymal stem cell and use thereof for treatment of muscle injury and muscle-associated diseases” (EXOSTEM BIOTEC LTD., priority 2016, dated 2021)
